Test results as given in patent publication US20140087995A1 (published 2014).
Values belong to the binder of their own block, whether it stands above or below them. Numbered stars: 1 amine (or outer) side, 2 acyl side, 3 side chain; on linkers, the order of the positions; unused ones are H or OH. Bridge positions count the residues as written; N and C are the ends. Side chains are listed from the residue outwards. Ends that are not written are not given here. * marks the point of attachment. C20 diacid = O=C(O)CCCCCCCCCCCCCCCCCCC(=O)*; γGlu = O=C(O)[C@H](CCC(=O)[*:2])N[*:1]; AEEA = NCCOCCOCC(=O)O

Key:
human amylin receptor = target: T1, human amylin receptor (human, UniProt P30988 25-474; O60896 24-148, limits assumed); test: SPA competition binding, displacement of 125I-rat amylin from membranes with human amylin 3(a) receptor (Assay V)
T1 construct: whole, on cells; Calcitonin receptor plus RAMP-3 gives the amylin 3(a) receptor; membranes of Amylin 3(a)/CRE-luc cells were used; also called hAmylin-R; hAmylinR
T1 sequence (looked up) 1: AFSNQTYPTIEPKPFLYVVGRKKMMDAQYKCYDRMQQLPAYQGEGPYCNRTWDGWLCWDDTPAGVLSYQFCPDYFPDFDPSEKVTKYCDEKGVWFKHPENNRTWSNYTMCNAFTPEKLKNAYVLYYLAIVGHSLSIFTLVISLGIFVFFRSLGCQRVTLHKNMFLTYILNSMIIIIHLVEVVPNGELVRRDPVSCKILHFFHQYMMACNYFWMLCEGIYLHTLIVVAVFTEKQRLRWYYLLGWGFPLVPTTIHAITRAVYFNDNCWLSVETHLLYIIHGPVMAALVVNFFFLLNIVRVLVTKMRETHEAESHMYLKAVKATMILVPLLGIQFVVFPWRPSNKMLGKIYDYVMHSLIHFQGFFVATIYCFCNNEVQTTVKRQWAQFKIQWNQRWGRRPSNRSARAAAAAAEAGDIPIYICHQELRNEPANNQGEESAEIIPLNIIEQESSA
T1 sequence (looked up) 2: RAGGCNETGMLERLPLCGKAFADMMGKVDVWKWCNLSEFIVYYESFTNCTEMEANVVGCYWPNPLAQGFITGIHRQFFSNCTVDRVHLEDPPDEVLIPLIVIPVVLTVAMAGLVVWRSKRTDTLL
How it was run: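 SPA beads with BHK Amylin 3(a)/CRE-luc cell membranes (35 ng/μL final) in 50 mM Hepes pH 7.4, 1 mM CaCl2, 5 mM MgCl₂, 0.1% OA, 0.02% Tween20.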

[1] = target: T2, human amylin receptor (amylin 3(a) receptor: human calcitonin receptor with RAMP-3) (human, UniProt P30988 25-474; O60896 24-148); test: SPA displacement of 125I-rat amylin, hAmylin 3(a) receptor membranes
T2 construct: whole, on cells; also called hAmylin-R; hAmylinR
T2 sequence (looked up) 1: T1 sequence (looked up) 1
T2 sequence (looked up) 2: T1 sequence (looked up) 2
Description: The binding assay was performed using scintillation proximity assay (SPA) beads (RPNQ0001) from PerkinElmer and cell membranes from the Amylin 3(a)/CRE-luc cells (as described in Assay (II)) were used. Membranes were prepared in the following way; the cells were rinsed with PBS and incubated with Versene for approximately 5 min before harvesting. The cells were flushed with PBS and the cell-suspension was centrifuged for 5 min at 1000 rpm. Cells were homogenized (ultrathurrax) in a buffer containing 20 mM Na-HEPES and 10 mM EDTA (pH 7.4) and centrifuged at 20.000 rpm for 15 min. The resulting pellet was resuspended, homogenized and centrifuged (20.000 rpm, 15 min) in a buffer containing 20 mM Na-HEPES and 0.1 mM EDTA (pH 7.4, buffer 2). The resulting pellet was resuspended in buffer 2 and protein concentration was measured (BCA protein Assay, Pierce). The homogenate was kept cold during the whole procedure. The membranes were kept at −80° C. until use. The assay was performed in a 384 well Optiplate (PerkinElmer) in a total volume of 40 ul. Membranes were mixed with SPA beads. Final concentration of membranes 35 ng/μL final and SPA beads was 0.05 mg/well. Test-compounds were dissolved in DMSO and further diluted in assay buffer (50 mM Hepes, pH 7.4, 1 mM CaCl2, 5 mM MgCl₂, 0.1% OA and 0.02% Tween20). […] The final mixture was incubated with shaking at 400 rpm for 120 min at 25° C. prior to centrifugation (1500 rpm, 10 min). Samples were analyzed on TopCounter™ (Packard). The IC₅₀ was calculated using (one site binding competition analysis) GraphPad Prism5 as a measure of receptor affinity.

IC50 (human amylin receptor): 0.552 nM
B1: N^ε-[2-[2-[2-[[(4S)-4-carboxy-4-(19-carboxynonadecanoylamino)butanoyl]amino]ethoxy]ethoxy]acetyl]Lys[Arg1,Arg17,Pro21,Pro27,His35]-h-amylin (peptide)
peptide: K([AEEA-γGlu-C20 diacid])RCNTATCATQRLANFLRHSSPNFGAIPSSTNVGSHTY-NH2
modifications: disulfide 3-8; N-terminus assumed
SMILES: CC[C@H](C)[C@H](NC(=O)[C@H](C)NC(=O)CNC(=O)[C@H](Cc1ccccc1)NC(=O)[C@H](CC(N)=O)NC(=O)[C@@H]1CCCN1C(=O)[C@H](CO)NC(=O)[C@H](CO)NC(=O)[C@H](Cc1c[nH]cn1)NC(=O)[C@H](CCCNC(=N)N)NC(=O)[C@H](CC(C)C)NC(=O)[C@H](Cc1ccccc1)NC(=O)[C@H](CC(N)=O)NC(=O)[C@H](C)NC(=O)[C@H](CC(C)C)NC(=O)[C@H](CCCNC(=N)N)NC(=O)[C@H](CCC(N)=O)NC(=O)[C@@H](NC(=O)[C@H](C)NC(=O)[C@@H]1CSSC[C@H](NC(=O)[C@H](CCCNC(=N)N)NC(=O)[C@@H](N)CCCCNC(=O)COCCOCCNC(=O)CC[C@H](NC(=O)CCCCCCCCCCCCCCCCCCC(=O)O)C(=O)O)C(=O)N[C@@H](CC(N)=O)C(=O)N[C@@H]([C@@H](C)O)C(=O)N[C@@H](C)C(=O)N[C@@H]([C@@H](C)O)C(=O)N1)[C@@H](C)O)C(=O)N1CCC[C@H]1C(=O)N[C@@H](CO)C(=O)N[C@@H](CO)C(=O)N[C@H](C(=O)N[C@@H](CC(N)=O)C(=O)N[C@H](C(=O)NCC(=O)N[C@@H](CO)C(=O)N[C@@H](Cc1c[nH]cn1)C(=O)N[C@H](C(=O)N[C@@H](Cc1ccc(O)cc1)C(N)=O)[C@@H](C)O)C(C)C)[C@@H](C)O
notes: also called -1K, 1R, 17R, 21P, 27P, 35H

IC50 (human amylin receptor): 0.275 nM
B2: N^ε-[(4S)-4-carboxy-4-(19-carboxynonadecanoylamino)butanoyl]Lys[Arg1,Arg17,Pro21,Pro27,His35]-h-amylin (peptide)
peptide: K([γGlu-C20 diacid])RCNTATCATQRLANFLRHSSPNFGAIPSSTNVGSHTY-NH2
modifications: disulfide 3-8; N-terminus assumed
SMILES: CC[C@H](C)[C@H](NC(=O)[C@H](C)NC(=O)CNC(=O)[C@H](Cc1ccccc1)NC(=O)[C@H](CC(N)=O)NC(=O)[C@@H]1CCCN1C(=O)[C@H](CO)NC(=O)[C@H](CO)NC(=O)[C@H](Cc1c[nH]cn1)NC(=O)[C@H](CCCNC(=N)N)NC(=O)[C@H](CC(C)C)NC(=O)[C@H](Cc1ccccc1)NC(=O)[C@H](CC(N)=O)NC(=O)[C@H](C)NC(=O)[C@H](CC(C)C)NC(=O)[C@H](CCCNC(=N)N)NC(=O)[C@H](CCC(N)=O)NC(=O)[C@@H](NC(=O)[C@H](C)NC(=O)[C@@H]1CSSC[C@H](NC(=O)[C@H](CCCNC(=N)N)NC(=O)[C@@H](N)CCCCNC(=O)CC[C@H](NC(=O)CCCCCCCCCCCCCCCCCCC(=O)O)C(=O)O)C(=O)N[C@@H](CC(N)=O)C(=O)N[C@@H]([C@@H](C)O)C(=O)N[C@@H](C)C(=O)N[C@@H]([C@@H](C)O)C(=O)N1)[C@@H](C)O)C(=O)N1CCC[C@H]1C(=O)N[C@@H](CO)C(=O)N[C@@H](CO)C(=O)N[C@H](C(=O)N[C@@H](CC(N)=O)C(=O)N[C@H](C(=O)NCC(=O)N[C@@H](CO)C(=O)N[C@@H](Cc1c[nH]cn1)C(=O)N[C@H](C(=O)N[C@@H](Cc1ccc(O)cc1)C(N)=O)[C@@H](C)O)C(C)C)[C@@H](C)O
notes: as for B1

IC50 (human amylin receptor): 0.348 nM
B3: N{-1}-[(4S)-4-carboxy-4-(19-carboxynonadecanoylamino)butanoyl]-Gly[Arg1,His14,Arg17,Pro21,Pro27]-h-amylin (peptide)
peptide: {C20 diacid-γGlu}-GRCNTATCATQRLAHFLRHSSPNFGAIPSSTNVGSNTY-NH2
modifications: disulfide 3-8
SMILES: CC[C@H](C)[C@H](NC(=O)[C@H](C)NC(=O)CNC(=O)[C@H](Cc1ccccc1)NC(=O)[C@H](CC(N)=O)NC(=O)[C@@H]1CCCN1C(=O)[C@H](CO)NC(=O)[C@H](CO)NC(=O)[C@H](Cc1c[nH]cn1)NC(=O)[C@H](CCCNC(=N)N)NC(=O)[C@H](CC(C)C)NC(=O)[C@H](Cc1ccccc1)NC(=O)[C@H](Cc1c[nH]cn1)NC(=O)[C@H](C)NC(=O)[C@H](CC(C)C)NC(=O)[C@H](CCCNC(=N)N)NC(=O)[C@H](CCC(N)=O)NC(=O)[C@@H](NC(=O)[C@H](C)NC(=O)[C@@H]1CSSC[C@H](NC(=O)[C@H](CCCNC(=N)N)NC(=O)CNC(=O)CC[C@H](NC(=O)CCCCCCCCCCCCCCCCCCC(=O)O)C(=O)O)C(=O)N[C@@H](CC(N)=O)C(=O)N[C@@H]([C@@H](C)O)C(=O)N[C@@H](C)C(=O)N[C@@H]([C@@H](C)O)C(=O)N1)[C@@H](C)O)C(=O)N1CCC[C@H]1C(=O)N[C@@H](CO)C(=O)N[C@@H](CO)C(=O)N[C@H](C(=O)N[C@@H](CC(N)=O)C(=O)N[C@H](C(=O)NCC(=O)N[C@@H](CO)C(=O)N[C@@H](CC(N)=O)C(=O)N[C@H](C(=O)N[C@@H](Cc1ccc(O)cc1)C(N)=O)[C@@H](C)O)C(C)C)[C@@H](C)O
notes: also called -1G, 1R, 14H, 17R, 21P, 27P

IC50 [1]: 0.556 nM
B4: N^α1-[2-[2-[2-[[2-[2-[2-[[(4S)-4-carboxy-4-(19-carboxynonadecanoylamino)butanoyl]amino]ethoxy]ethoxy]acetyl]amino]ethoxy]ethoxy]acetyl]-[Glu14,Arg17,Pro21,Pro27 … (peptide)
peptide: KCNTATCATQRLAEFLRHSSPNFGAIPSSTNVGSNTY
modifications: C20 diacid-gGlu-2xOEG on alpha amino group of N-terminal Lys 1; Cys2-Cys7 disulfide; C-terminal amide
notes: also called 19; compound 19
